The source of these data is patent publication US20030091584A1 (AstraZeneca / MedImmune, published 2003).

Test [1] concerns the target T1, F protein of wild type RSV A/Long (respiratory syncytial virus strain …, UniProt P12568 26-574). Description: cell-based or functional assay.
The target of test [2] is T1, F protein of wild type RSV A/Long. Description: cell-based or functional assay. The source holds these as a separate data set.
Test [3] addresses T2, RSV F glycoprotein (NUF4) (respiratory syncytial virus).
T2 chain 1: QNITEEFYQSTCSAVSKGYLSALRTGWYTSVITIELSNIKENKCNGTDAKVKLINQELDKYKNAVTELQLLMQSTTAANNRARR
T2 chain 2: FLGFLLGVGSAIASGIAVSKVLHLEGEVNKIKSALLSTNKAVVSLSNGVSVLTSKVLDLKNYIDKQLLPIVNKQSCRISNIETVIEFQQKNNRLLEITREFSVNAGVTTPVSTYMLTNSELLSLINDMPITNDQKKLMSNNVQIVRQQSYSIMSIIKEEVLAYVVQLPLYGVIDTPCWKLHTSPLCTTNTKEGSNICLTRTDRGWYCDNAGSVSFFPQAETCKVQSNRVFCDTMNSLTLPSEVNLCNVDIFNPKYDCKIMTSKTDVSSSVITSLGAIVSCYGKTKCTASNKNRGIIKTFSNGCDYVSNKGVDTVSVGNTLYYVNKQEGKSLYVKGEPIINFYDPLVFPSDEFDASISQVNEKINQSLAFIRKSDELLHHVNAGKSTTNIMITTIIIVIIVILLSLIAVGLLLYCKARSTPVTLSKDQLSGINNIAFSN
Put plainly: BIAcore, mAb vs NUF4 (1:1).

In test [4] the target is T2, RSV F glycoprotein (NUF4). Put plainly: BIAcore, mAb vs NUF4 (2:1).
For another test, the target named is T3, Bac-F.
T3 construct: Construct and strain not described
Put plainly: BIAcore, mAb vs Bac-F (1:1).

For test [5], the target named is T4, F protein of RSV A/Long MARM with K272N (respiratory syncytial virus strain …, UniProt P12568 26-574).
T4 construct: whole, on cells; also called MARM B1
Put plainly: IFA on MARM-infected HEp-2 cells.

For test [6], the target named is T5, F protein of RSV A/Long MARM with K272M (respiratory syncytial virus strain …, UniProt P12568 26-574).
T5 construct: whole, on cells; Seven independent isolates with the same change are kept as one molecule; also called MARM B2; MARM B3
Put plainly: IFA on MARM-infected HEp-2 cells.

Test [7] deals with T6, F protein of RSV A/Long MARM with K272T (respiratory syncytial virus strain …, UniProt P12568 26-574).
T6 construct: whole, on cells; also called MARM B7; MARM B10
Description: IFA on MARM-infected HEp-2 cells.

Test [8] concerns the target T7, F protein of RSV A/Long MARM with K272Q (respiratory syncytial virus strain …, UniProt P12568 26-574).
T7 construct: whole, on cells; also called MARM B9; B9
Put plainly: IFA on MARM-infected HEp-2 cells.

In test [9] the target is T8, F protein of RSV A/Long MARM with K272E, N276Y (respiratory syncytial virus strain …, UniProt P12568 26-574).
T8 construct: whole, on cells; also called MARM #10; MARM 10
Description: IFA on MARM-infected HEp-2 cells.

For test [10], the target named is T9, F protein of RSV A/Long MARM with K272E (respiratory syncytial virus strain …, UniProt P12568 26-574).
T9 construct: whole, on cells; also called MARM #6; MARM #9
Description: IFA on MARM-infected HEp-2 cells.

Test [11] has as its target T10, F protein of RSV MARM with K272Q, N262K (respiratory syncytial virus strain …, UniProt P12568 26-574).
T10 construct: whole, on cells; also called MARM #13; MARM 13
Description: IFA on MARM-infected HEp-2 cells.

Test [12] deals with T2, RSV F glycoprotein (NUF4). Description: ITC, NUF4 titrated into antibody.
The target of test [13] is T2, RSV F glycoprotein (NUF4). Put plainly: ITC, NUF4 titrated into antibody, 35 °C.
Test [14] deals with T2, RSV F glycoprotein (NUF4). Put plainly: ITC, NUF4 titrated into antibody, 35 °C (1/Kb).

Substitutions are numbered along the chain they refer to.

T1 sequence (P12568 26-574): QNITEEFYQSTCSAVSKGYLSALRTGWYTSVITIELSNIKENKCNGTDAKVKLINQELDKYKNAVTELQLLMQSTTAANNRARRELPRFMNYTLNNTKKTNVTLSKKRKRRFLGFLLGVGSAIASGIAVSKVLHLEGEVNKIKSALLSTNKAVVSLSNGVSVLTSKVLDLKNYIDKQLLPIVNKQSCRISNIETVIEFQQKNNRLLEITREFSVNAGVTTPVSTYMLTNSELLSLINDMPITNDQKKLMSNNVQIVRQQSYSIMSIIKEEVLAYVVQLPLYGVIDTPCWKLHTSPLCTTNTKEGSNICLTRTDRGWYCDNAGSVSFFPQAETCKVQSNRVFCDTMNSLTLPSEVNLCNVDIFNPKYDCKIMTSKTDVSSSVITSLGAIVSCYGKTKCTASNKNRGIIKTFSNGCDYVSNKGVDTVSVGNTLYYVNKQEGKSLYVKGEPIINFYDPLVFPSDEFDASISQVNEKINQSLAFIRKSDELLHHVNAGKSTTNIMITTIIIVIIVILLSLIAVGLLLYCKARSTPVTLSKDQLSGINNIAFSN

B1: SYNAGIS® (monoclonal antibody) (antibody, V domains shown)
VH: QVTLRESGPALVKPTQTLTLTCTFSGFSLSTSGMSVGWIRQPPGKALEWLADIWWDDKKDYNPSLKSRLTISKDTSKNQVVLKVTNMDPADTATYYCARSMITNWYFDVWGAGTTVTVSS
VL: DIQMTQSPSTLSASVGDRVTITCKCQLSVGYMHWYQQKPGKAPKLLIYDTSKLASGVPSRFSGSGSGTEFTLTISSLQPDDFATYYCFQGSGYPFTFGGGTKLEIK
notes: also called SYNAGIS ®/SYNAGIS ® (HC/LC)
In the case of B1, in test [1], the “EC50 (nM), in vitro microneutralization of RSV Long” value amounted to 3.57 nM. Moreover, the “Mean IC50 (Control), RSV microneutralization” value in test [2] stood at 0.535 µg/mL. The “Mean IC50 (Curve), RSV microneutralization” value in test [2] is 0.453 µg/mL. Also, the figures for the Kd (in test [3]; in test [4]; in the test with Bac-F) were 8.7 nM, 312 nM and 3.9 nM, respectively. For the same molecule, the binding result in test [5], in [6], in test [7], in test [8], in test [9] and in test [10] was “no binding (tested: 250 ng/ml)” in each case. Further, the binding result in test [11] is recorded as “no binding (tested: 250 ng/ml)”.

B2: A4B4 (monoclonal antibody) (antibody, V domains shown)
VH: B1 VH with S32A, D60H, S67D, S100D, T103F, W105F, A112Q
VL: B1 VL with K24S, C25A, Q26S, L27S, S28R, S51F, K52F, A54D
notes: mAb; also called A4B4/A4B4 (HC/LC)
B2: in [2], the “Fold Difference (Control IC50)” value worked out at 35 fold; the “Fold Difference (Curve IC50)” value turned out to be 27 fold; the “Mean IC50 (Control), RSV microneutralization” value turned out to be 0.0154 µg/mL; the “Mean IC50 (Curve), RSV microneutralization” value was 0.0171 µg/mL. Moreover, in [3], the Kd is 0.57 nM, the koff was 0.000282 s⁻¹, the kon was 496000 M⁻¹ s⁻¹ and the “number in parentheses after KD (fold against SYNAGIS = 1)” value (“number … (fold against SYNAGIS = 1)” for short) came to 15 fold. Further, in test [4], the affinity, expressed as Kd, was 2 nM; the koff is 0.000401 s⁻¹; the on-rate constant (kon) was 203000 M⁻¹ s⁻¹; the “number … (fold against SYNAGIS = 1)” value came to 156 fold. In addition, in the test with Bac-F, binding was characterised by a dissociation constant (Kd) of 0.02 nM, the koff was 1.06e-05 s⁻¹, the association rate constant (kon) is 434000 M⁻¹ s⁻¹ and the “number … (fold against SYNAGIS = 1)” value came to 195 fold. In [12], the “ΔHb (binding enthalpy)” value was determined as 22.2 kcal/mol. The binding result in [9] is “no binding (tested: 250 ng/ml)”. Further, the binding result in test [10] was “no binding (tested: 250 ng/ml)”. Also, in test [11], the binding result is “no binding (tested: 250 ng/ml)”. In test [13], the Ka amounted to 2.69e+08 M⁻¹. Also, in [14], the Kd is ~3.7 nM.
